To fix the notation:
B1: pCEP4-1NT11-16CT20 (other)
chain: EDCNELPPRRNTEILTGSWSDQTYPEGTQAIYKCRPGYRSLGNVIMVCRKGEWVALNPLRKCQKRPCGHPGDTPFGTFTLTGGNVFEYGVKAVYTCNEGYQLLGEINYRECDTDGWTNDIPICEVVKCLPVTAPENGKIVSSAMEPDREYHFGQAVRFVCNSGYKIEGDEEMHCSDDGFWSKEKPKCVEISCKSPDVINGSPISQKIIYKENERFQYKCNMGYEYSERGDAVCTESGWRPLPSCEEKSCDNPYIPNGDYSPLRIKHRTGDEITYQCRNGFYPATRGNTAKCTSTGWIPAPRCTLKPCDYPDIKHGGLYHENMRRPYFPVAVGKYYSYYCDEHFETPSGSYWDHIHCTQDGWSPAVPCLRKCYFPYLENGYNQNHGRKFVQGKSIDVACHPGYALPKAQTTVTCMENGWSPTPRCIRVKTCSKSSIDIENGFISESQYTYALKEKAKYQCKLGYVTADGETSGSITCGKDGWSAQPTCIKSCDIPVFMNARTKNDFTWFKLNDTLDYECHDGYESNTGSTTGSIVCGYNGWSDLPICYERECELPKIDVHLVPDRKKDQYKVGEVLKFSCKPGFTIVGPNSVQCYHFGLSPDLPICKEQVQSCGPPPELLNGNVKEKTKEEYGHSEVVEYYCNPRFLMKGPNKIQCVDGEWTTLPVCIVEESTGASGCKSPPEISHGVVAHMSDSYQYGEEVTYKCFEGFGIDGPAIAKCLGEKWSHPPSCIKTDCLSLPSFENAIPMGEKKDVYKAGEQVTYTCATYYKMDGASNVTCINSRWTGRPTCRDTSCVNPPTVQNAYIVSRQMSKYPSGERVRYQCRSPYEMFGDEEVMCLNGNWTEPPQCKDSTGKCGPPPPIDNGDITSFPLSVYAPASSVEYQCQNLYQLEGNKRITCRNGQWSEPPKCLHPCVISREIMENYNIALRWTAKQKLYSRTGESVEFVCKRGYRLSSRSHTLRTTCWDGKLEYPTCAKRGGSGHHHHHH
B2: pCEP4-1NT7-13CT20 (other)
chain: EDCNELPPRRNTEILTGSWSDQTYPEGTQAIYKCRPGYRSLGNVIMVCRKGEWVALNPLRKCQKRPCGHPGDTPFGTFTLTGGNVFEYGVKAVYTCNEGYQLLGEINYRECDTDGWTNDIPICEVVKCLPVTAPENGKIVSSAMEPDREYHFGQAVRFVCNSGYKIEGDEEMHCSDDGFWSKEKPKCVEISCKSPDVINGSPISQKIIYKENERFQYKCNMGYEYSERGDAVCTESGWRPLPSCEEKSCDNPYIPNGDYSPLRIKHRTGDEITYQCRNGFYPATRGNTAKCTSTGWIPAPRCTLKPCDYPDIKHGGLYHENMRRPYFPVAVGKYYSYYCDEHFETPSGSYWDHIHCTQDGWSPAVPCLRKCYFPYLENGYNQNYGRKFVQGKSIDVACHPGYALPKAQTTVTCMENGWSPTPRCIRVKTGASGCKSSNLIILEEHLKNKKEFDHNSNIRYRCRGKEGWIHTVCINGRWDPEVNCSMAQIQLCPPPPQIPNSHNMTTTLNYRDGEKVSVLCQENYLIQEGEEITCKDGRWQSIPLCVEKIPCSQPPQIEHGTINSSRSSQESYAHGTKLSYTCEGGFRISEENETTCYMGKWSSPPQCEGLPCKSPPEISHGVVAHMSDSYQYGEEVTYKCFEGFGIDGPAIAKCLGEKWSHPPSCIKTDCLSLPSFENAIPMGEKKDVYKAGEQVTYTCATYYKMDGASNVTCINSRWTGRPTCRDTSCVNPPTVQNAYIVSRQMSKYPSGERVRYQCRSPYEMFGDEEVMCLNGNWTEPPQCKDSTGKCGPPPPIDNGDITSFPLSVYAPASSVEYQCQNLYQLEGNKRITCRNGQWSEPPKCLHPCVISREIMENYNIALRWTAKQKLYSRTGESVEFVCKRGYRLSSRSHTLRTTCWDGKLEYPTCAKRGGSGHHHHHH
B3: pCEP4-1NT11-15CT20 (other)
chain: EDCNELPPRRNTEILTGSWSDQTYPEGTQAIYKCRPGYRSLGNVIMVCRKGEWVALNPLRKCQKRPCGHPGDTPFGTFTLTGGNVFEYGVKAVYTCNEGYQLLGEINYRECDTDGWTNDIPICEVVKCLPVTAPENGKIVSSAMEPDREYHFGQAVRFVCNSGYKIEGDEEMHCSDDGFWSKEKPKCVEISCKSPDVINGSPISQKIIYKENERFQYKCNMGYEYSERGDAVCTESGWRPLPSCEEKSCDNPYIPNGDYSPLRIKHRTGDEITYQCRNGFYPATRGNTAKCTSTGWIPAPRCTLKPCDYPDIKHGGLYHENMRRPYFPVAVGKYYSYYCDEHFETPSGSYWDHIHCTQDGWSPAVPCLRKCYFPYLENGYNQNHGRKFVQGKSIDVACHPGYALPKAQTTVTCMENGWSPTPRCIRVKTCSKSSIDIENGFISESQYTYALKEKAKYQCKLGYVTADGETSGSITCGKDGWSAQPTCIKSCDIPVFMNARTKNDFTWFKLNDTLDYECHDGYESNTGSTTGSIVCGYNGWSDLPICYERECELPKIDVHLVPDRKKDQYKVGEVLKFSCKPGFTIVGPNSVQCYHFGLSPDLPICKEQVQSCGPPPELLNGNVKEKTKEEYGHSEVVEYYCNPRFLMKGPNKIQCVDGEWTTLPVCIVEESTGASGCSQPPQIEHGTINSSRSSQESYAHGTKLSYTCEGGFRISEENETTCYMGKWSSPPQCEGLPCKSPPEISHGVVAHMSDSYQYGEEVTYKCFEGFGIDGPAIAKCLGEKWSHPPSCIKTDCLSLPSFENAIPMGEKKDVYKAGEQVTYTCATYYKMDGASNVTCINSRWTGRPTCRDTSCVNPPTVQNAYIVSRQMSKYPSGERVRYQCRSPYEMFGDEEVMCLNGNWTEPPQCKDSTGKCGPPPPIDNGDITSFPLSVYAPASSVEYQCQNLYQLEGNKRITCRNGQWSEPPKCLHPCVISREIMENYNIALRWTAKQKLYSRTGESVEFVCKRGYRLSSRSHTLRTTCWDGKLEYPTCAKRGGSGHHHHHH
B4: pCEP4-1NT8-10CT20 (other)
chain: EDCNELPPRRNTEILTGSWSDQTYPEGTQAIYKCRPGYRSLGNVIMVCRKGEWVALNPLRKCQKRPCGHPGDTPFGTFTLTGGNVFEYGVKAVYTCNEGYQLLGEINYRECDTDGWTNDIPICEVVKCLPVTAPENGKIVSSAMEPDREYHFGQAVRFVCNSGYKIEGDEEMHCSDDGFWSKEKPKCVEISCKSPDVINGSPISQKIIYKENERFQYKCNMGYEYSERGDAVCTESGWRPLPSCEEKSCDNPYIPNGDYSPLRIKHRTGDEITYQCRNGFYPATRGNTAKCTSTGWIPAPRCTLKPCDYPDIKHGGLYHENMRRPYFPVAVGKYYSYYCDEHFETPSGSYWDHIHCTQDGWSPAVPCLRKCYFPYLENGYNQNYGRKFVQGKSIDVACHPGYALPKAQTTVTCMENGWSPTPRCIRVKTCSKSSIDIENGFISESQYTYALKEKAKYQCKLGYVTADGETSGSITCGKDGWSAQPTCIKSGASGCELPKIDVHLVPDRKKDQYKVGEVLKFSCKPGFTIVGPNSVQCYHFGLSPDLPICKEQVQSCGPPPELLNGNVKEKTKEEYGHSEVVEYYCNPRFLMKGPNKIQCVDGEWTTLPVCIVEESTCGDIPELEHGWAQLSSPPYYYGDSVEFNCSESFTMIGHRSITCIHGVWTQLPQCVAIDKLKKCKSSNLIILEEHLKNKKEFDHNSNIRYRCRGKEGWIHTVCINGRWDPEVNCSMAQIQLCPPPPQIPNSHNMTTTLNYRDGEKVSVLCQENYLIQEGEEITCKDGRWQSIPLCVEKIPCSQPPQIEHGTINSSRSSQESYAHGTKLSYTCEGGFRISEENETTCYMGKWSSPPQCEGLPCKSPPEISHGVVAHMSDSYQYGEEVTYKCFEGFGIDGPAIAKCLGEKWSHPPSCIKTDCLSLPSFENAIPMGEKKDVYKAGEQVTYTCATYYKMDGASNVTCINSRWTGRPTCRDTSCVNPPTVQNAYIVSRQMSKYPSGERVRYQCRSPYEMFGDEEVMCLNGNWTEPPQCKDSTGKCGPPPPIDNGDITSFPLSVYAPASSVEYQCQNLYQLEGNKRITCRNGQWSEPPKCLHPCVISREIMENYNIALRWTAKQKLYSRTGESVEFVCKRGYRLSSRSHTLRTTCWDGKLEYPTCAKRGGSGHHHHHH
B5: pCEP4-1NT7-19CT20 (other)
chain: EDCNELPPRRNTEILTGSWSDQTYPEGTQAIYKCRPGYRSLGNVIMVCRKGEWVALNPLRKCQKRPCGHPGDTPFGTFTLTGGNVFEYGVKAVYTCNEGYQLLGEINYRECDTDGWTNDIPICEVVKCLPVTAPENGKIVSSAMEPDREYHFGQAVRFVCNSGYKIEGDEEMHCSDDGFWSKEKPKCVEISCKSPDVINGSPISQKIIYKENERFQYKCNMGYEYSERGDAVCTESGWRPLPSCEEKSCDNPYIPNGDYSPLRIKHRTGDEITYQCRNGFYPATRGNTAKCTSTGWIPAPRCTLKPCDYPDIKHGGLYHENMRRPYFPVAVGKYYSYYCDEHFETPSGSYWDHIHCTQDGWSPAVPCLRKCYFPYLENGYNQNYGRKFVQGKSIDVACHPGYALPKAQTTVTCMENGWSPTPRCIRVKTGASGCGPPPPIDNGDITSFPLSVYAPASSVEYQCQNLYQLEGNKRITCRNGQWSEPPKCLHPCVISREIMENYNIALRWTAKQKLYSRTGESVEFVCKRGYRLSSRSHTLRTTCWDGKLEYPTCAKRGGSGHHHHHH
B6: pCEP4-1NT10-14CT20 (other)
chain: EDCNELPPRRNTEILTGSWSDQTYPEGTQAIYKCRPGYRSLGNVIMVCRKGEWVALNPLRKCQKRPCGHPGDTPFGTFTLTGGNVFEYGVKAVYTCNEGYQLLGEINYRECDTDGWTNDIPICEVVKCLPVTAPENGKIVSSAMEPDREYHFGQAVRFVCNSGYKIEGDEEMHCSDDGFWSKEKPKCVEISCKSPDVINGSPISQKIIYKENERFQYKCNMGYEYSERGDAVCTESGWRPLPSCEEKSCDNPYIPNGDYSPLRIKHRTGDEITYQCRNGFYPATRGNTAKCTSTGWIPAPRCTLKPCDYPDIKHGGLYHENMRRPYFPVAVGKYYSYYCDEHFETPSGSYWDHIHCTQDGWSPAVPCLRKCYFPYLENGYNQNHGRKFVQGKSIDVACHPGYALPKAQTTVTCMENGWSPTPRCIRVKTCSKSSIDIENGFISESQYTYALKEKAKYQCKLGYVTADGETSGSITCGKDGWSAQPTCIKSCDIPVFMNARTKNDFTWFKLNDTLDYECHDGYESNTGSTTGSIVCGYNGWSDLPICYERECELPKIDVHLVPDRKKDQYKVGEVLKFSCKPGFTIVGPNSVQCYHFGLSPDLPICKEQVQSGASGCPPPPQIPNSHNMTTTLNYRDGEKVSVLCQENYLIQEGEEITCKDGRWQSIPLCVEKIPCSQPPQIEHGTINSSRSSQESYAHGTKLSYTCEGGFRISEENETTCYMGKWSSPPQCEGLPCKSPPEISHGVVAHMSDSYQYGEEVTYKCFEGFGIDGPAIAKCLGEKWSHPPSCIKTDCLSLPSFENAIPMGEKKDVYKAGEQVTYTCATYYKMDGASNVTCINSRWTGRPTCRDTSCVNPPTVQNAYIVSRQMSKYPSGERVRYQCRSPYEMFGDEEVMCLNGNWTEPPQCKDSTGKCGPPPPIDNGDITSFPLSVYAPASSVEYQCQNLYQLEGNKRITCRNGQWSEPPKCLHPCVISREIMENYNIALRWTAKQKLYSRTGESVEFVCKRGYRLSSRSHTLRTTCWDGKLEYPTCAKRGGSGHHHHHH
Wherever C3 convertase activity % of the control is given: test concentration or dose not given here.

For the experiment, the target named is C3 convertase complex (UniProt P01024 23-1663; P00751 260-764). In words: cell-based or functional assay.
C3 convertase complex, sequence (P01024 23-1663, chain 1 of 2): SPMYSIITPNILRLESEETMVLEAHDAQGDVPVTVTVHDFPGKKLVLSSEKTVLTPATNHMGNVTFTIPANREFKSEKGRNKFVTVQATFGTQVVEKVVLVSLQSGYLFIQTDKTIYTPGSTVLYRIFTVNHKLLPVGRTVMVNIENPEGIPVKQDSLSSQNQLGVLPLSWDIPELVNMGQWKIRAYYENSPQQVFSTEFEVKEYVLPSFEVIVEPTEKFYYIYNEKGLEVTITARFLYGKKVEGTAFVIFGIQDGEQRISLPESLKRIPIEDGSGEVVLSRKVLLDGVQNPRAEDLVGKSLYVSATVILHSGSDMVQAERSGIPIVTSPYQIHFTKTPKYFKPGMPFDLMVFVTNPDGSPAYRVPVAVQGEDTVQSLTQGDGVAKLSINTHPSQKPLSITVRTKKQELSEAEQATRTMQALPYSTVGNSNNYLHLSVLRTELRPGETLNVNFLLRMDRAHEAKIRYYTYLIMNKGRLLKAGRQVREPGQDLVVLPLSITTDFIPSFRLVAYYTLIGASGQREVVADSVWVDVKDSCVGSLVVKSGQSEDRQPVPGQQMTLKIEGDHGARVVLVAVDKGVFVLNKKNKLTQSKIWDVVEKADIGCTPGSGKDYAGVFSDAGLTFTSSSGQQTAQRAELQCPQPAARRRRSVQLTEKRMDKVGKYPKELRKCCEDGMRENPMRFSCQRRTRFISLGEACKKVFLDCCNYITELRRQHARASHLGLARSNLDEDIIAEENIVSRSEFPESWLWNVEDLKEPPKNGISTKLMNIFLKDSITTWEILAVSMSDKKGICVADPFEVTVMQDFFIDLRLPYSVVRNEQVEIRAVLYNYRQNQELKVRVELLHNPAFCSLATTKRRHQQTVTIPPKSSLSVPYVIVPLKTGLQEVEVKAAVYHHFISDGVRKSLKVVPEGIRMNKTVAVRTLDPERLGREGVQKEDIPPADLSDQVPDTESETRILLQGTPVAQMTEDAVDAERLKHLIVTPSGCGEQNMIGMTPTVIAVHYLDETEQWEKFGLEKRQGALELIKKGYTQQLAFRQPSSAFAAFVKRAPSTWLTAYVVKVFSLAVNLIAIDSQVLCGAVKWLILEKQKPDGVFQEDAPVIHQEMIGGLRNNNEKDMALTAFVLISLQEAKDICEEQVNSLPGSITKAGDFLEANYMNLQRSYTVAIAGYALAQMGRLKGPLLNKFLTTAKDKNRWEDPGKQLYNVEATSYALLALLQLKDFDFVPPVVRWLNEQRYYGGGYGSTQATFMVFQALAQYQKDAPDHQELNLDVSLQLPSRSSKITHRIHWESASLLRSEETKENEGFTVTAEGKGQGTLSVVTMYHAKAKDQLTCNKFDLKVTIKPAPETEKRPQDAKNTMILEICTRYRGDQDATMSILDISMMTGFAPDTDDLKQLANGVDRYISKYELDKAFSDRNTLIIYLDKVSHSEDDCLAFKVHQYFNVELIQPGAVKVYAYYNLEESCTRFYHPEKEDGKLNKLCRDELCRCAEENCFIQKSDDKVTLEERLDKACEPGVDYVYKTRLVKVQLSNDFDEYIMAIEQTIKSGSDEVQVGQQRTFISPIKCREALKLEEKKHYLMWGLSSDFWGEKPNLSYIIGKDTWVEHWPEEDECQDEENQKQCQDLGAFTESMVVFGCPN
C3 convertase complex, sequence (P00751 260-764, chain 2 of 2): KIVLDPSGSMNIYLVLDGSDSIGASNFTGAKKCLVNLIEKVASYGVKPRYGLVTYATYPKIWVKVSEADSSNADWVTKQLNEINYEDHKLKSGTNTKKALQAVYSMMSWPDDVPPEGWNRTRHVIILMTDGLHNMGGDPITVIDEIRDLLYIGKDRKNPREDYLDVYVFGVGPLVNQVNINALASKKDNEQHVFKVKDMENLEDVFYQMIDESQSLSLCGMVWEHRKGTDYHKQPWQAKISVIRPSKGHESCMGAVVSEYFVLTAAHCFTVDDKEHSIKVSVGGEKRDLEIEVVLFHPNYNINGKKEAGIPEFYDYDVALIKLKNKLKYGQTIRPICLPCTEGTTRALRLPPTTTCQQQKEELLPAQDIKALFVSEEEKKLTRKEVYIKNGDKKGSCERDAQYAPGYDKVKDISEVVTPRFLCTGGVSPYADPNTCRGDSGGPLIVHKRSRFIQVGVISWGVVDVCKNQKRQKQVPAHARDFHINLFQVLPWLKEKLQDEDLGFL
With B1, the “C3 convertase activity % of the control” value is 8 % of the control and the “C3 convertase activity IC50” value was determined as 1.21 µg/mL.

Consider B2, for which the “C3 convertase activity % of the control” value was 7 % of the control and the “C3 convertase activity IC50” value amounted to 1.93 µg/mL.

In the case of B3, the “C3 convertase activity % of the control” value was 10 % of the control and the “C3 convertase activity IC50” value stood at 0.74 µg/mL.

For the molecule B4, the “C3 convertase activity % of the control” value was 107 % of the control and the “C3 convertase activity IC50” value is 0.338 µg/mL.

As for B5, the “C3 convertase activity % of the control” value is 12 % of the control and the “C3 convertase activity IC50” value amounted to 1.09 µg/mL.

Consider B6, for which the “C3 convertase activity % of the control” value was 14 % of the control and the “C3 convertase activity IC50” value was 0.671 µg/mL.

Source of the values: patent US20170190753A1 (LABORATOIRE FRANCAIS DU FRACTIONNEMENT ET DES …, published 2017).
